B1: Fab fragment of CLN-619 (Fab, V domains shown)
VH: QVQLVESGGGLVKPGGSLRLSCAASGFTFSNYAMSWIRQAPGKGLEWVSYISPGGDYIYYADSVKGRFTISRDNAKNSLYLQMNSLRAEDTAVYYCTTDRRHYGSYAMDYWGQGTLVTVSS
VL: DIVMTQSPLSLPVTPGEPASISCRSSKSLLHSNLNTYLYWFLQKPGQSPQILIYRMSNLASGVPDRFSGSGSGTAFTLKISRVEAEDVGVYYCMQHLEYPFTFGPGTKLEIK
B2: CLN-619, humanized IgG1 monoclonal antibody against MICA/B (antibody, V domains shown)
VH: B1 VH
VL: B1 VL

Tests used:
[1] = biological target: MICA alpha-3 domain of MICA*001 (Homo sapiens, allele MICA*001, UniProt Q29983, strain); assay: crystal structure
[2] = biological target: MICA*001 extracellular domain (Homo sapiens, allele MICA*001, UniProt Q29983); assay: ELISA
[3] = biological target: MICA*002 extracellular domain (Homo sapiens, allele MICA*002 (stand-in …, UniProt Q29983)); assay: ELISA
[4] = biological target: MICB*004 extracellular domain (Homo sapiens, allele MICB*004, UniProt Q29980); assay: BLI

Row | Binder | binding result [1] | binding result [2] | binding result [3] | Kd [4] [nM]
1 | B1 | binds | – | – | –
2 | B2 | – | binds | binds | 11.4

Reference: PMC12020772 (Journal for Immunotherapy of Cancer, 2025)
